Results: US20170306346

Target: GST-MYC2-HA (UniProt Q39204)
Sequence (Q39204 whole entry): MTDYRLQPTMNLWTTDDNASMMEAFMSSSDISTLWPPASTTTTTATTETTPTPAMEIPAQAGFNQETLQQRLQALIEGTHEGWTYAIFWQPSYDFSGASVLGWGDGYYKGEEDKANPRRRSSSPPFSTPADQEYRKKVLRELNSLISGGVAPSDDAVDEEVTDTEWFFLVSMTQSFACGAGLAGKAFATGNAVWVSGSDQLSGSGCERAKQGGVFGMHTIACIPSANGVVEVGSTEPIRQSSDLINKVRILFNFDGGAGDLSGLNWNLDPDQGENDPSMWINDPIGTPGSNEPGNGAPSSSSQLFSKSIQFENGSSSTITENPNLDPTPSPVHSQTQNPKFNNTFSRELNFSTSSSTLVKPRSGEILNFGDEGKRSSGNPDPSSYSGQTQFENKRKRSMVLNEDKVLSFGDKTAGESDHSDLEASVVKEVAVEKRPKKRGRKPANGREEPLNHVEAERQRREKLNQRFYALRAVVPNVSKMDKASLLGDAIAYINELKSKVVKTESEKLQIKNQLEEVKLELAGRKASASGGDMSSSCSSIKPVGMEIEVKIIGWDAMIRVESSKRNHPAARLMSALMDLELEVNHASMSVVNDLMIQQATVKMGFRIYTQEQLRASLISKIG

MBP-PUB11 (C247A)-myc
in vitro ubiquitination of MYC2 (E1, E2, Ub; Western blot): MBP-PUB11 (C247A)-myc mutant protein has no E3 activity for GST-MYC-HA
